Test results: patent US20210009704A1 (TUSK THERAPEUTICS, published 2021)

Key:
[1] = target: T1, inhouse produced monomeric CD25 antigen (P1AA5872) (human, UniProt P01589 22-240, limits assumed); assay: SPR Biacore T200, antibody captured by anti-human Fab, monomeric CD25 in solution, 1:1 Langmuir fit; column head 'Binding strength'
T1 construct: also called Inhouse (0% dimer)
T1 sequence: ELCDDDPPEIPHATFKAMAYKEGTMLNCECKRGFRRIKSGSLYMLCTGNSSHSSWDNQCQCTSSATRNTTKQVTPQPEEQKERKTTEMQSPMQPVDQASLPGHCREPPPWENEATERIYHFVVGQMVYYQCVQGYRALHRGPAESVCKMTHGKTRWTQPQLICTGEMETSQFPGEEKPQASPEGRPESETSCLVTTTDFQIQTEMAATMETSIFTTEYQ
Description: (§1) Binding of CD25 antibodies to human CD25 antigen was investigated by surface plasmon resonance using a BIACORE T200 instrument (GE Healthcare).
(§2) The flow cell was set to 25° C. and the sample compartment to 12° C. The CD25 antibody was captured by injecting a 3 μg/ml solution for 60 sec at a flow rate of 10 μl/min. Association of CD25 antigen was measured by injection of human CD25 solutions for 180 sec at a flow rate of 30 μl/min starting with a concentration of 1000 nM down to 1 nM in 1:10 dilution steps. The dissociation phase was triggered by switching from sample solution injection to running buffer and monitored for up to 600 seconds. The surface was regenerated by washing with two consecutive 1-minute injections of 10mM glycine pH 2.1 (provided by the kit) at a flow rate of 10 μl/min. Bulk refractive index differences were corrected by subtracting the response obtained from an anti-human Fab reference surface; blank injections are also subtracted (=double referencing).
(§3) For calculation of KD and kinetic parameters Biacore provided fitting models were used to obtain optimal curve fitting results. The 1:1 Langmuir fit was used for P1AA5872 and the Two State Kinetic fitting for CD25 from Sino Biologicals and R&D Systems.

[2] = target: T2, human CD25 antigen, R&D Systems cat no. 223-2A/CF (human, UniProt P01589 22-213, limits assumed); assay: SPR Biacore T200, antibody captured by anti-human Fab, CD25 in solution, Two State Reaction fit; column head 'Binding strength'
T2 construct: Bought protein; also called R&D Systems (~10% dimer)
T2 sequence: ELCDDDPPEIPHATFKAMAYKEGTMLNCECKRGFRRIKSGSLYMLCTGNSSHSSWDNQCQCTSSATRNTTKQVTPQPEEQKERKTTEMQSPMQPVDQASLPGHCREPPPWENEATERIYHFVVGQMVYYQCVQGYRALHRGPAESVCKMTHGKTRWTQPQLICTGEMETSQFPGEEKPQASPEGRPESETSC
Description: as §1, §2, §3

[3] = target: T3, recombinant human CD25 extracellular protein sequence (rhCD25) (human, UniProt P01589 22-240); assay: ForteBio BLI; format not given; upper end of the stated Kd range
T3 construct: also called human CD25 antigen; target antigen
T3 sequence: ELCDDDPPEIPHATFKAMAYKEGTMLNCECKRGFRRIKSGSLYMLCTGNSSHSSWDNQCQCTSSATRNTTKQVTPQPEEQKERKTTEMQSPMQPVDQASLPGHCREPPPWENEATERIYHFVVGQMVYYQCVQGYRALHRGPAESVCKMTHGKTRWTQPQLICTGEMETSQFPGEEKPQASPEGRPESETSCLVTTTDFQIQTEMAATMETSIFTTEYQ

[4] = target: T4, recombinant human CD25 his tagged (human, UniProt P01589 22-240, limits assumed); assay: ForteBio BLI, avidity format: rhCD25-His on Ni-NTA sensor, IgG in solution, 1:1 fit
T4 construct: Loaded on Ni-NTA sensors at 20.83 nM; also called rhCD25-his; not shown: His tag
T4 sequence: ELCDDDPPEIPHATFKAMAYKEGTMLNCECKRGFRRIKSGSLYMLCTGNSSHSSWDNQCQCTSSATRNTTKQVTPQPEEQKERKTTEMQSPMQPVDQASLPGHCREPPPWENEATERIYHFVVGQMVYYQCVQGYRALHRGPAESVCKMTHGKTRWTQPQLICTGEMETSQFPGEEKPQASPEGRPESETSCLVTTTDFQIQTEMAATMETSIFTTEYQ

[5] = target: T5, human CD25 expressed on cells (human, UniProt P01589 22-272); assay: flow cytometry on human in vitro differentiated Treg cells, Alexa Fluor 647 anti-human IgG secondary
T5 sequence: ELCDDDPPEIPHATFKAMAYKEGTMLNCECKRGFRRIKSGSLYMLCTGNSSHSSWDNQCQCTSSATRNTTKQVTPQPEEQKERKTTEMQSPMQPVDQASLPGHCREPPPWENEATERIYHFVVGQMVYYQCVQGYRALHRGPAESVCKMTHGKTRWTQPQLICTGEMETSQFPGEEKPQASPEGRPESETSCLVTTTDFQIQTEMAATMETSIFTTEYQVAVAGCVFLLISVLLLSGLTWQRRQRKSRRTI
Description: Binding to CD25 expressing in vitro differentiated Tregs was examined by staining test articles (anti-CD25 primary antibodies) with 30 μg/ml antibodies followed by semi-log dilution series (7-point) for 30 minutes on ice. […] All samples were stained in duplicates. Live cells were gated using FSC vs SSC parameters by flow cytometry during sample acquisition. Mean fluorescence intensity (MFI) of stained cells were plotted on an XY chart, graphing MFI against the log of the concentration, and the data fit to a non-linear regression curve from which the EC50 is calculated.

[6] = target: T5, human CD25 expressed on cells; assay: flow cytometry on CD3/CD28 bead activated human Pan T cells, gated on CD8+ T cells
Description: (§4) Binding to CD25 expressing activated human and Cynomolgus monkey PMBC was examined by staining test articles (anti-CD25 primary antibodies) with 20 μg/ml antibodies followed by semi-log dilution series (7-point) for 30 minutes on ice. This was followed by staining with a secondary antibody (rabbit anti-human Fcg F(ab′)2- (Jackson ImmunoResearch)) concentration of 5 μg/ml for 30 minutes on ice. All samples were stained in triplicates. To minimize cross-linking induced cell death mediated by binding of the secondary antibody, cell lines were examined in staining cohorts of 4 test articles at a time. Live lymphocytes were gated using FSC vs SSC parameters by flow cytometry during sample acquisition. Mean fluorescence intensity (MFI) of gated CD4⁺ and CD8⁺ T cell subsets were plotted on an XY chart, graphing MFI against the log of the concentration, and the data fit to a non-linear regression curve from which the EC50 was calculated.

[7] = target: T6, human CD25 antigen, Sino Biologicals cat no. 10165-H08H (human, UniProt P01589 22-213); assay: SPR Biacore T200, antibody captured by anti-human Fab, CD25 in solution, Two State Reaction fit; column head 'Binding strength'; Sino Biologicals CD25, ~20% dimer; Two State Reaction fit
T6 construct: Bought protein; also called Sino biological (~20% dimer)
T6 sequence: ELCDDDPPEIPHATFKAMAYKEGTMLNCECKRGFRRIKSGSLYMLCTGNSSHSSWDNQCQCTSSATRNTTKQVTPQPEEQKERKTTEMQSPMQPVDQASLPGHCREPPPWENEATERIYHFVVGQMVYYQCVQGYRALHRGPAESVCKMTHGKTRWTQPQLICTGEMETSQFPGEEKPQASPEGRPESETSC
Description: as §1, §2, §3

[8] = target: T5, human CD25 expressed on cells; assay: flow cytometry on CD3/CD28 bead activated human Pan T cells, gated on CD4+ T cells
Description: as §4

[9] = target: T3, recombinant human CD25 extracellular …; assay: ForteBio BLI; format not given; lower end of the stated Kd range

Kd [1]: 517 nM
Kd [2]: 48 nM
Kd [3]: ≤ 10 nM
Kd [4]: 2.12 nM
EC50 (read off the curve) [5]: ~2 µg/mL
EC50 (read off the curve) [6]: ~1 µg/mL
Kd [7]: 40 nM
EC50 (read off the curve) [8]: ~0.9 µg/mL
Kd [9]: ≥ 0.1 nM
B1: aCD25-a-674 (antibody, V domains shown)
VH: QVQLVQSGAEVKKPGASVKVSCKASGYTFTSYYMHWVRQAPGQGLEWMGIINPSGGSTSYAQKFQGRVTMTRDTSTSTVYMELSSLRSEDTAVYYCARGGAEYIPAEYFQHWGQGTLVTVSS
VL: EIVMTQSPATLSLSPGERATLSCRASQSVSSYLAWYQQKPGQAPRLLIYDASNRATGIPARFSGSGSGTDFTLTISSLEPEDFAVYYCQQRPFLPTFGGGTKVEIK
notes: not shown: human IgG1 heavy chain constant region, P01857; human kappa light chain constant region, P01834
